Reference: US20090202547A1 (FIBRON, published 2009)

Experiments:
[1] = molecular target: T1, FGFR3 (wild type) on cells (human, UniProt P22607 23-806); assay: FACS
T1 construct: also called FDCP-FR3; FDCP-FGFR3

FR3exFc [2] = molecular target: T2, FR3exFc (human); assay: BIACORE
T2 construct: also called FGFR3/Fc; FR3/Fc
Method: (§1) The affinity measurements were performed by BIACORE® analysis according to the standard procedure recommended by the supplier (Pharmacia). The anti-Fc antibody was coupled via the EDC/NHS chemistry to the chip and subsequently FGFR3 was captured. The Fabs of the invention were then bound to this surface.

[3] = molecular target: T1, FGFR3 (wild type) on cells; assay: cell-based or functional assay
[4] = molecular target: T1, FGFR3 (wild type) on cells; assay: cell-based or functional assay; remark: listed apart in the source
FR3exFc [5] = molecular target: T2, FR3exFc; assay: BIACORE, FGFR3 captured on an anti-Fc chip
Method: as §1

FR3exFc [6] = molecular target: T2, FR3exFc; assay: BIACORE, FGFR3 captured on an anti-Fc chip; remark: listed apart in the source
Method: as §1

[7] = molecular target: T1, FGFR3 (wild type) on cells; assay: indirect FACS-Scatchard; indirect FACS-Scatchard, Table 5 (Table 1C gives 1.1 nM)
hFR3^D2Fc = molecular target: T3, hFR3^D2Fc (human, UniProt P22607 143-250); assay: ELISA, Fc fusion anchored on an anti-human Fc coated plate, bound Fab detected with HRP anti-human Fab
T3 construct: Only domain 2 of the entry stood in the assay; also called product of pChFR3^D2Fc; not shown: human Fc
T3 sequence: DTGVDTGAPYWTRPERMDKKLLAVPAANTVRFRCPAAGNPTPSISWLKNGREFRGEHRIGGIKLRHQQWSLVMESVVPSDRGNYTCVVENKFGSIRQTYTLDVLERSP
Excerpt: Constructs comprising cDNAs that code for segments of the extracellular domain of FGFR3 were generated (FIG. 10). D2 comprises Ig domain 2, D2-3 comprises Ig domains 2 and 3, and D1-3 comprises Ig domains 1, 2 and 3. These constructs include pChFR3^D2Fc that codes for Ig-like domain 2 of FGFR3 and pChFR3^{D2,3}Fc that codes for domain 2 and 3, both as human Fc fusions. The corresponding chimeric proteins, as well as the control hFR3exFc (containing domains 1, 2 and 3) were anchored to an ELISA plate coated with a human Fc antibody. A panel of 8 best Fabs, MSPRO2, 11, 12, 21, 24, 26, 28 and 29, were added, and bound Fab was determined with HRP-α human Fab (FIG. 11). […] Both bind to the Ig like domain 2 while the others require domain 3 for binding. It was then tested whether or not Fabs that belong to the second group would distinguish the FGFR3IIIc isoform from the FGFRIIIb from. FDCP-FR3IIIb or FDCP-FR3IIIc cells were incubated in the presence of 1.25 ng/ml FGF9 with increasing doses of either MSPRO12 or MSPRO29. Ly6.3 was included as control. After 2 days in culture, cell proliferation was measured with the XTT reagent. Clearly, MSPRO29 (open triangle) was completely ineffective against the IIIb isoform (FIG. 12).

FR3exFc [8] = molecular target: T2, FR3exFc; assay: BIAcore; number in parentheses taken as the monomeric Fab; monomeric Fab, value in parentheses of Table 1E (Tables 1C and 5 give 9 nM)

T1 sequence (P22607 23-806 limits assumed): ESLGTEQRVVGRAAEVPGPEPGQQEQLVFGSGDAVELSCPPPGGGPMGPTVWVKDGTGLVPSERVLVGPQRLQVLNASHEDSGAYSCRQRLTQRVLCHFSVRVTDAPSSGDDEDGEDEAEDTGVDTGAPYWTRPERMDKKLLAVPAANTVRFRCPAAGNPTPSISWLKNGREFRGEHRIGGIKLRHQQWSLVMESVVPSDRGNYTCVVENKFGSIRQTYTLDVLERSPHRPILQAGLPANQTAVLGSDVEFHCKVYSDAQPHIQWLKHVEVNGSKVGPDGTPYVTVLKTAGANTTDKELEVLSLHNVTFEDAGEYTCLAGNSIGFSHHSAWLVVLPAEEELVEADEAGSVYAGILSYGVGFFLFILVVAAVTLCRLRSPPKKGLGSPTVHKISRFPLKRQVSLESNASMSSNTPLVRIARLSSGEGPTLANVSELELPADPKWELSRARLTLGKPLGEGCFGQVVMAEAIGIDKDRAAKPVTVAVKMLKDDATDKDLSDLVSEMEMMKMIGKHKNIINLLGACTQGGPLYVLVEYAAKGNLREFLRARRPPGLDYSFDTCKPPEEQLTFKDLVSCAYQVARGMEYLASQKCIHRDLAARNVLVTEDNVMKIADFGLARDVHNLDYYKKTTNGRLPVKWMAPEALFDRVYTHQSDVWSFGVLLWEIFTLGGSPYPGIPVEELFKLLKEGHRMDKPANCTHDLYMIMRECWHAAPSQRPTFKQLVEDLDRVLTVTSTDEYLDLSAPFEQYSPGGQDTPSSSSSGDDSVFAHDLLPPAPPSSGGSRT
T2 sequence (chain, as listed by the source limits assumed): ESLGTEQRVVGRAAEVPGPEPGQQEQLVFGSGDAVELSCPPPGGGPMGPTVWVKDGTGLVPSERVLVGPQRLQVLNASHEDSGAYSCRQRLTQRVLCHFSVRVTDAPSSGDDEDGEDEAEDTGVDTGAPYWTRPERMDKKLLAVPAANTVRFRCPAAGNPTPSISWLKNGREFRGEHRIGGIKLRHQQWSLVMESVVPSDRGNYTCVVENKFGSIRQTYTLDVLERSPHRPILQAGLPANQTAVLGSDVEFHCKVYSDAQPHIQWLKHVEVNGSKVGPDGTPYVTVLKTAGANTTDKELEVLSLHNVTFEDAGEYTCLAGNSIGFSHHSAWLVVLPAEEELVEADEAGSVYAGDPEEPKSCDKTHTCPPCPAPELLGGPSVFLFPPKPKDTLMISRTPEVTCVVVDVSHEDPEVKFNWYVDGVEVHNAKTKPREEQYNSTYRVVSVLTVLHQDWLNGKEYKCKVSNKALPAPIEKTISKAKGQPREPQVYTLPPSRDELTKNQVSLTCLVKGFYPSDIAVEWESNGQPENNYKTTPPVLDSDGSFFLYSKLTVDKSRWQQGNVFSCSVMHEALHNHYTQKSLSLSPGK

Kd [1]: 1.1 nM
koff (FR3exFc [2]): 0.0036 s⁻¹
IC50 FR3 (FGF9), FDCP-FGFR3 proliferation assay [3]: 50 nM
IC50, FDCP-FGFR3 proliferation assay with FGF9, monomeric Fab (in parentheses) [4]: 50 nM
Kd (FR3exFc [5]): 9 nM
Kd (FR3exFc [6]): 9 nM
Kd [7]: 0.6 nM
binding result (hFR3^D2Fc): no binding
Kd (FR3exFc [8]): 4.1 nM
B1: MSPRO21 (Fab, V domains shown)
VH: QVQLVQSGAEVKKPGSSVKVSCKASGGTFSSYAISWVRQAPGQGLEWMGGIIPIFGTANYAQKFQGRVTITADESTSTAYMELSSLRSEDTAVYYCARDNWFKPFSDVWGQGTLVTVSS
VL: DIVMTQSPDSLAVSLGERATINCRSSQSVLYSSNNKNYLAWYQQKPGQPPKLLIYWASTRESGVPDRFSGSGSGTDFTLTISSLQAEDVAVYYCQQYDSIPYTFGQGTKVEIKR
